Results on three variants are retold here after publication PMC11257983 (2024).

B1: Flag-CNK^2–549 [Drosophila] / GST-HYP [Drosophila] (parent complex)
chain 1: AYINIAEWTPDQVTDWIKGLDESMKGYLYEFSKQEIGGRALLNIRPYELENLGMLRIGHQEIVLEAVENLRNFHYHLKNDNLQFMALHVATAAKNLHRELARNHAESTKIDTRILHDITRTIATLKPLVGSLERTPFRKQEMYREYCGNVLKCGLELATIAHRDRFALQPVPAIRQSAERLENLANFVIQDISDPMVLQPASLNLVTLKKRESELGFNIESSYNGIHRVTDIKYNSPAHNSGKIEDGDEIVQINYQTVVGWQHRTVLEHLREALPDVVLTVKKRPKHTKMFGQIYMQPYRLPSKKRNMAARWAAQMPSPRAAFLTLDTEQLATGGTGSAVPDPSKSLSSEKREVLTKANPVSSASDSDSSCSDIPTPTDPKLAAREIRLYYPKPRALLQRRNTICGCEYLSLKNSDLVVPSWHERKPGIGSPTNCDPGSPSIRDKSISFGYGLEMAARPTTCIGIAGDTSTDKARRMFHEARKLKQLTEDSQREFLVDRYKPGVSKVVRFDAKEDYVMKNEKFICNVENTILETFEPIPFADEGDEDA
chain 2: MGEETINSTQNKTRTKTTRPKAVYLWTVSDVLKWYRRHCGEYTQYEQLFAQHDITGRALLRITDSSLQRMGVTDNRDREAIWREIVKQRLKTDIMEIRDMERLNIY

The variants in the first assay derive from B1. Briefly: GST pull-down, immunoblot quantification; S2 cells; GST-HYP + RRKM co-expressed; anti-Flag (CNK) blot; parent: 1.
Consider chain 1 AYINIAEWTPDQVTDWIKGLDESMKGYLYEFSKQEIGGRALLNIRPYELENLGMLRIGHQEIVLEAVENLRNFHYHLKNRNLQFMALHVATAAKNLHRELARNHAESTKIDTRILHDITRTIATLKPLVGSLERTPFRKQEMYREYCGNVLKCGLELATIAHRDRFALQPVPAIRQSAERLENLANFVIQDISDPMVLQPASLNLVTLKKRESELGFNIESSYNGIHRVTDIKYNSPAHNSGKIEDGDEIVQINYQTVVGWQHRTVLEHLREALPDVVLTVDKRPKHTKMFGQIYMQPYRLPSKKRNMAARWAAQMPSPRAAFLTLDTEQLATGGTGSAVPDPSKSLSSEKREVLTKANPVSSASDSDSSCSDIPTPTDPKLAAREIRLYYPKPRALLQRRNTICGCEYLSLKNSDLVVPSWHERKPGIGSPTNCDPGSPSIRDKSISFGYGLEMAARPTTCIGIAGDTSTDKARRMFHEARKLKQLTEDSQREFLVDRYKPGVSKVVRFDAKEDYVMKNEKFICNVENTILETFEPIPFADEGDEDA [chain 1 D80R, chain 1 K282D], for which the ratio to parent was 0.73.
Regarding chain 1 AYINIAEWTPDQVTDWIKGLDESMKGYLYEFSKQEIGGRALLNIRPYELENLGMLRIGHQEIVLEAVENLRNFHYHLKNRNLQFMALHVATAAKNLHRELARNHAESTKIDTRILHDITRTIATLKPLVGSLERTPFRKQEMYREYCGNVLKCGLELATIAHRDRFALQPVPAIRQSAERLENLANFVIQDISDPMVLQPASLNLVTLKKRESELGFNIESSYNGIHRVTDIKYNSPAHNSGKIEDGDEIVQINYQTVVGWQHRTVLEHLREALPDVVLTVKKRPKHTKMFGQIYMQPYRLPSKKRNMAARWAAQMPSPRAAFLTLDTEQLATGGTGSAVPDPSKSLSSEKREVLTKANPVSSASDSDSSCSDIPTPTDPKLAAREIRLYYPKPRALLQRRNTICGCEYLSLKNSDLVVPSWHERKPGIGSPTNCDPGSPSIRDKSISFGYGLEMAARPTTCIGIAGDTSTDKARRMFHEARKLKQLTEDSQREFLVDRYKPGVSKVVRFDAKEDYVMKNEKFICNVENTILETFEPIPFADEGDEDA [chain 1 D80R], the ratio to parent turned out to be 1.03.

In the next assay the parent is B1. In words: GST pull-down, immunoblot quantification; S2 cells; only Flag-CNK2–549 and GST-HYP co-expressed; anti-Flag blot; parent: 1.
chain 1 AYINIAEWTPDQVTDWIKGLDESMKGYLYEFSKQEIGGRALLNIRPYELENLGMLRIGHQEIVLEAVENLRNFHYHLKNRNLQFMALHVATAAKNLHRELARNHAESTKIDTRILHDITRTIATLKPLVGSLERTPFRKQEMYREYCGNVLKCGLELATIAHRDRFALQPVPAIRQSAERLENLANFVIQDISDPMVLQPASLNLVTLKKRESELGFNIESSYNGIHRVTDIKYNSPAHNSGKIEDGDEIVQINYQTVVGWQHRTVLEHLREALPDVVLTVDKRPKHTKMFGQIYMQPYRLPSKKRNMAARWAAQMPSPRAAFLTLDTEQLATGGTGSAVPDPSKSLSSEKREVLTKANPVSSASDSDSSCSDIPTPTDPKLAAREIRLYYPKPRALLQRRNTICGCEYLSLKNSDLVVPSWHERKPGIGSPTNCDPGSPSIRDKSISFGYGLEMAARPTTCIGIAGDTSTDKARRMFHEARKLKQLTEDSQREFLVDRYKPGVSKVVRFDAKEDYVMKNEKFICNVENTILETFEPIPFADEGDEDA [chain 1 D80R, chain 1 K282D]: the ratio to parent is 1.03.
As for chain 1 AYINIAEWTPDQVTDWIKGLDESMKGYLYEFSKQEIGGRALLNIRPYELENLGMLRIGHQEIVLEAVENLRNFHYHLKNRNLQFMALHVATAAKNLHRELARNHAESTKIDTRILHDITRTIATLKPLVGSLERTPFRKQEMYREYCGNVLKCGLELATIAHRDRFALQPVPAIRQSAERLENLANFVIQDISDPMVLQPASLNLVTLKKRESELGFNIESSYNGIHRVTDIKYNSPAHNSGKIEDGDEIVQINYQTVVGWQHRTVLEHLREALPDVVLTVKKRPKHTKMFGQIYMQPYRLPSKKRNMAARWAAQMPSPRAAFLTLDTEQLATGGTGSAVPDPSKSLSSEKREVLTKANPVSSASDSDSSCSDIPTPTDPKLAAREIRLYYPKPRALLQRRNTICGCEYLSLKNSDLVVPSWHERKPGIGSPTNCDPGSPSIRDKSISFGYGLEMAARPTTCIGIAGDTSTDKARRMFHEARKLKQLTEDSQREFLVDRYKPGVSKVVRFDAKEDYVMKNEKFICNVENTILETFEPIPFADEGDEDA [chain 1 D80R], the ratio to parent was 0.46.

Variants of B1 are the subject of a further assay. In words: GST pull-down, immunoblot quantification; S2 cells; GST-HYP + RRKM co-expressed; anti-Flag (CNK) blot; parent: 1. This is another data set of the same source.
Take chain 1 AYINIAEWTPDQVTDWIKGLDESMKGYLYEFSKQEIGGRALLNIRPYELENLGMLRIGHQEIVLEAVENLRNRHYHLKNDNLQFMALHVATAAKNLHRELARNHAESTKIDTRILHDITRTIATLKPLVGSLERTPFRKQEMYREYCGNVLKCGLELATIAHRDRFALQPVPAIRQSAERLENLANFVIQDISDPMVLQPASLNLVTLKKRESELGFNIESSYNGIHRVTDIKYNSPAHNSGKIEDGDRIVQINYQTVVGWQHRTVLEHLREALPDVVLTVKKRPKHTKMFGQIYMQPYRLPSKKRNMAARWAAQMPSPRAAFLTLDTEQLATGGTGSAVPDPSKSLSSEKREVLTKANPVSSASDSDSSCSDIPTPTDPKLAAREIRLYYPKPRALLQRRNTICGCEYLSLKNSDLVVPSWHERKPGIGSPTNCDPGSPSIRDKSISFGYGLEMAARPTTCIGIAGDTSTDKARRMFHEARKLKQLTEDSQREFLVDRYKPGVSKVVRFDAKEDYVMKNEKFICNVENTILETFEPIPFADEGDEDA [chain 1 F73R, chain 1 E249R]: the ratio to parent amounted to 0.22.

Another assay covers variants of B1. In words: GST pull-down, immunoblot quantification; S2 cells; only Flag-CNK2–549 and GST-HYP co-expressed; anti-Flag blot; parent: 1. The source holds these as a separate data set.
chain 1 AYINIAEWTPDQVTDWIKGLDESMKGYLYEFSKQEIGGRALLNIRPYELENLGMLRIGHQEIVLEAVENLRNRHYHLKNDNLQFMALHVATAAKNLHRELARNHAESTKIDTRILHDITRTIATLKPLVGSLERTPFRKQEMYREYCGNVLKCGLELATIAHRDRFALQPVPAIRQSAERLENLANFVIQDISDPMVLQPASLNLVTLKKRESELGFNIESSYNGIHRVTDIKYNSPAHNSGKIEDGDRIVQINYQTVVGWQHRTVLEHLREALPDVVLTVKKRPKHTKMFGQIYMQPYRLPSKKRNMAARWAAQMPSPRAAFLTLDTEQLATGGTGSAVPDPSKSLSSEKREVLTKANPVSSASDSDSSCSDIPTPTDPKLAAREIRLYYPKPRALLQRRNTICGCEYLSLKNSDLVVPSWHERKPGIGSPTNCDPGSPSIRDKSISFGYGLEMAARPTTCIGIAGDTSTDKARRMFHEARKLKQLTEDSQREFLVDRYKPGVSKVVRFDAKEDYVMKNEKFICNVENTILETFEPIPFADEGDEDA [chain 1 F73R, chain 1 E249R]: the ratio to parent was found to be 0.06.
